According to patent US8633156B2, “Insulin derivatives having an extremely delayed time-action profile” (Sanofi-Aventis Deutschland GmbH, priority 2008, dated 2014):

How the values were obtained:
[1] = from Kohn et al., cited from earlier work
[2] = system: healthy male normal glycemic Wistar rats; assay: Blood glucose-lowering effect of insulin analogues in rats; type: in vivo, rat; conditions: dose 9 nmol/kg s.c., n=8, blood glucose up to eight hours after injection
Description: In order to test the insulin derivatives of the invention for their biopharmacological and physicochemical properties, a solution of the compounds was prepared as follows: the insulin derivative of the invention was dissolved with a target concentration of 240±5 μM in 1 mM hydrochloric acid with 80 μg/mL zinc (as zinc chloride). For this purpose, initially an amount of the freeze-dried material which is about 30% higher than required on the basis of the molecular weight and the desired concentration was weighed out. The concentration present was then determined by analytical HPLC and the solution was subsequently made up to the volume necessary to achieve the target concentration with 5 mM hydrochloric acid with 80 μg/mL zinc. If necessary, the pH was readjusted to 3.5±0.1. After the final analysis by HPLC to verify the target concentration of 240±5 μM, the finished solution was transferred by means of a syringe with a 0.2 μm filter attachment into a sterile vial which was closed with a septum and a crimped cap. […] Blood samples are taken from the animals immediately before the injection of the insulin analogue and at regular intervals up to eight hours after the injection, and the blood glucose content therein is determined.

Row | Substance | calculated pl ([1]; calculated) | experimentally determined pl ([1]; experimentally determined) | hypoglycemic effect [2] | isoelectric point (pl) [1]
1 | Arg (A0), Gly (A21), Arg (B31), Arg (B32) human insulin [Compound 18] | 7.58 | 7.3 |  | 
2 | human insulin |  |  | hypoglycemic effect | 5.6
